# Measurements published in patent US20240117018A1.
# Experiments:
# Assay in all cases: cell-based or functional assay
# [1] = target: HIV-1 Env of pseudovirus ZM214M.PL15 (HIV-1)
# [2] = target: HIV-1 Env of pseudovirus PVO.4 (HIV-1)
# [3] = target: HIV-1 Env of pseudovirus Du422.1 (HIV-1)
# [4] = target: HIV-1 Env of pseudovirus Q842.d12 (HIV-1)
# [5] = target: HIV-1 Env of pseudovirus Ce1172_H1 (HIV-1)
# [6] = target: HIV-1 Env of pseudovirus CAP210.2.00.E8 (HIV-1)
# [7] = target: HIV-1 Env of pseudovirus WITO4160.33 (HIV-1)
# [8] = target: HIV-1 Env of pseudovirus CNE52 (HIV-1)
# [9] = target: HIV-1 Env of pseudovirus THRO4156.18 (HIV-1)
# [10] = target: HIV-1 Env of pseudovirus ZM249M.PL1 (HIV-1)
# [11] = target: HIV-1 Env of pseudovirus 0260.v5.c36 (HIV-1)
# [12] = target: HIV-1 Env of pseudovirus Du156.12 (HIV-1)
# [13] = target: HIV-1 Env of pseudovirus C2101.c01 (HIV-1)
# [14] = target: HIV-1 Env of pseudovirus ZM233M.PB6 (HIV-1)
# [15] = target: HIV-1 Env of pseudovirus Du172.17 (HIV-1)
# [16] = target: HIV-1 Env of pseudovirus Ce704809221_1B3 (HIV-1)
# [17] = target: HIV-1 Env of pseudovirus TRJO4551.58 (HIV-1)
# [18] = target: HIV-1 Env of pseudovirus Ce0393_C3 (HIV-1)
# [19] = target: HIV-1 Env of pseudovirus 3365.v2.c2 (HIV-1)
# [20] = target: HIV-1 Env of pseudovirus CNE53 (HIV-1)
# [21] = target: HIV-1 Env of pseudovirus CNE30 (HIV-1)
# [22] = target: HIV-1 Env of pseudovirus CNE8 (HIV-1)
# [23] = target: HIV-1 Env of pseudovirus HIV-16845-2.22 (HIV-1)
# [24] = target: HIV-1 Env of pseudovirus 1012_11_TC21_3257 (HIV-1)
# [25] = target: HIV-1 Env of pseudovirus Ce703010054_2A2 (HIV-1)
# [26] = target: HIV-1 Env of pseudovirus 246F C1G (HIV-1)
# [27] = target: HIV-1 Env of pseudovirus 1006_11_C3_1601 (HIV-1)
# [28] = target: HIV-1 Env of pseudovirus ZM197M.PB7 (HIV-1)
# [29] = target: HIV-1 Env of pseudovirus HIV-001428-2.42 (HIV-1)
# [30] = target: HIV-1 Env of pseudovirus 1056_10_TA11_1826 (HIV-1)
# [31] = target: HIV-1 Env of pseudovirus REJO4541.67 (HIV-1)
# [32] = target: HIV-1 Env of pseudovirus 6535.3 (HIV-1)
# [33] = target: HIV-1 Env of pseudovirus T250-4 (HIV-1)
# [34] = target: HIV-1 Env of pseudovirus Ce2010_F5 (HIV-1)
# [35] = target: HIV-1 Env of pseudovirus CNE20 (HIV-1)
# [36] = target: HIV-1 Env of pseudovirus Ce0682_E4 (HIV-1)
# [37] = target: HIV-1 Env of pseudovirus RHPA4259.7 (HIV-1)
# [38] = target: HIV-1 Env of pseudovirus 6240_08_TA5_4622 (HIV-1)
substance,measurement,setting,value
N49P7.1 (antibody),IC50,[1],0.257 µg/mL
same,IC80,[1],0.853 µg/mL
same,MPI,[1],100
same,IC50,[2],0.124 µg/mL
same,IC80,[2],0.421 µg/mL
same,MPI,[2],100
same,IC50,[3],3.76 µg/mL
same,IC80,[3],15.7 µg/mL
same,MPI,[3],93
same,IC50,[4],0.028 µg/mL
same,IC80,[4],0.08 µg/mL
same,MPI,[4],100
same,IC50,[5],17.1 µg/mL
same,IC80,[5],> 50 µg/mL
same,MPI,[5],78
same,IC50,[6],2.03 µg/mL
same,IC80,[6],7.3 µg/mL
same,MPI,[6],99
same,IC50,[7],0.121 µg/mL
same,IC80,[7],0.326 µg/mL
same,MPI,[7],100
same,IC50,[8],0.021 µg/mL
same,IC80,[8],0.058 µg/mL
same,MPI,[8],100
same,IC50,[9],3.07 µg/mL
same,IC80,[9],12.6 µg/mL
same,MPI,[9],98
same,IC50,[10],0.071 µg/mL
same,IC80,[10],0.239 µg/mL
same,MPI,[10],100
same,IC50,[11],0.497 µg/mL
same,IC80,[11],1.51 µg/mL
same,MPI,[11],100
same,IC50,[12],0.045 µg/mL
same,IC80,[12],0.131 µg/mL
same,MPI,[12],100
same,IC50,[13],0.076 µg/mL
same,IC80,[13],0.425 µg/mL
same,MPI,[13],100
same,IC50,[14],0.355 µg/mL
same,IC80,[14],1.25 µg/mL
same,MPI,[14],100
same,IC50,[15],0.185 µg/mL
same,IC80,[15],0.748 µg/mL
same,MPI,[15],100
same,IC50,[16],0.211 µg/mL
same,IC80,[16],1.35 µg/mL
same,MPI,[16],100
same,IC50,[17],0.156 µg/mL
same,IC80,[17],0.529 µg/mL
same,MPI,[17],100
same,IC50,[18],0.23 µg/mL
same,IC80,[18],1.02 µg/mL
same,MPI,[18],100
same,IC50,[19],0.088 µg/mL
same,IC80,[19],0.289 µg/mL
same,MPI,[19],100
same,IC50,[20],0.066 µg/mL
same,IC80,[20],0.228 µg/mL
same,MPI,[20],100
same,IC50,[21],0.307 µg/mL
same,IC80,[21],1.01 µg/mL
same,MPI,[21],100
same,IC50,[22],0.048 µg/mL
same,IC80,[22],0.167 µg/mL
same,MPI,[22],100
same,IC50,[23],1.07 µg/mL
same,IC80,[23],5.4 µg/mL
same,MPI,[23],100
same,IC50,[24],0.063 µg/mL
same,IC80,[24],0.176 µg/mL
same,MPI,[24],100
same,IC50,[25],0.085 µg/mL
same,IC80,[25],0.364 µg/mL
same,MPI,[25],100
same,IC50,[26],0.049 µg/mL
same,IC80,[26],0.165 µg/mL
same,MPI,[26],100
same,IC50,[27],0.061 µg/mL
same,IC80,[27],0.193 µg/mL
same,MPI,[27],100
same,IC50,[28],0.144 µg/mL
same,IC80,[28],0.539 µg/mL
same,MPI,[28],100
same,IC50,[29],0.009 µg/mL
same,IC80,[29],0.029 µg/mL
same,MPI,[29],100
same,IC50,[30],0.171 µg/mL
same,IC80,[30],0.603 µg/mL
same,MPI,[30],100
same,IC50,[31],0.022 µg/mL
same,IC80,[31],0.088 µg/mL
same,MPI,[31],100
same,IC50,[32],0.224 µg/mL
same,IC80,[32],0.715 µg/mL
same,MPI,[32],100
same,IC50,[33],2.27 µg/mL
same,IC80,[33],24.7 µg/mL
same,MPI,[33],89
same,IC50,[34],0.055 µg/mL
same,IC80,[34],0.208 µg/mL
same,MPI,[34],100
same,IC50,[35],0.079 µg/mL
same,IC80,[35],0.224 µg/mL
same,MPI,[35],100
same,IC50,[36],0.026 µg/mL
same,IC80,[36],0.099 µg/mL
same,MPI,[36],100
same,IC50,[37],0.108 µg/mL
same,IC80,[37],0.292 µg/mL
same,MPI,[37],100
same,IC50,[38],0.509 µg/mL
same,IC80,[38],1.95 µg/mL
same,MPI,[38],100
